US20160340421A1 (Regeneron, published 2016)
Ends that are not written are not given here. * marks the point of attachment. Biotin = O=C1N[C@H]2[C@H](CS[C@H]2CCCCC(=O)*)N1

What was measured:
[1] = target: T1, hGDF8 peptide 2 (1-18), unmodified (human); experiment: Luminex peptide beads
T1 peptide: DFGLDCDEHSTESRCCRY
Text: (§1) Fourteen peptides (Table 10) were generated from mature hGDF8 (SEQ ID NO:340). Unmodified peptides, N-terminal biotinylated peptides (N-term), or C-terminal biotinylated peptides (C-term) were used to test and localize antibody binding. Full-length hGDF8, hGDF11 and unmodified peptides were each individually amine-coupled to xMAP® Multi-Analyte COOH Microspheres (or beads). Each of the biotinylated peptides was bound to xMAP® Multi-Analyte LumAvidin Microspheres. Peptide-bound beads suspension were then mixed with an equal volume of blocking buffer (PBS, 1%13SA, 0.05% Tween20, 0.05% Sodium azide) and then distributed into a 96 well filter plate (Millipore, MULTISCREEN® BV). Control and test anti-hGDF8 antibodies, at 2.5 μg/ml were then added to the peptide-bound beads suspension and were allowed to bind to the beads at RT, overnight. The antibody-incubated beads were then washed twice with PBST (PBS+0.05% Tween20) and incubated with either Phycoerythrin (PE) conjugated anti-hFC or PE-conjugated anti-mFC antibodies at RT for 45 min. The beads were washed again and the antibody binding signal to various peptides were detected with either LUMINEX® 100™ or 200™ instruments.

[2] = target: T2, hGDF8 peptide 2 (1-18), N-terminal biotinylated (human, cysteine pairing not given here); experiment: Luminex peptide beads
T2 construct: also called peptide 2 N-term
T2 peptide: Biotin-DFGLDCDEHSTESRCCRY
Text: as §1

[3] = target: T3, hGDF8 peptide 3 (17-42), unmodified (human); experiment: Luminex peptide beads
T3 peptide: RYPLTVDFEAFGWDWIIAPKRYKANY
Text: as §1

[4] = target: T4, hGDF8 peptide 3 (17-42), C-terminal biotinylated (human, C-terminal biotin); experiment: Luminex peptide beads
T4 construct: also called peptide 3 C-term
T4 peptide: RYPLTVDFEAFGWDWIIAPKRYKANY
Text: as §1

[5] = target: T5, hGDF8 peptide 6 (48-72), unmodified (human); experiment: Luminex peptide beads
T5 construct: also called peptide fragment 48-72 amino acids
T5 peptide: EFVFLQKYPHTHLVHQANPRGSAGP
Text: as §1

[6] = target: T6, hGDF8 peptide 6 (48-72), N-terminal biotinylated (human, N-terminal biotin); experiment: Luminex peptide beads
T6 construct: also called peptide 6 N-term
T6 peptide: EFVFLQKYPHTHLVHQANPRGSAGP
Text: as §1

[7] = target: T7, hGDF8 peptide 6 (48-72), C-terminal biotinylated (human, C-terminal biotin); experiment: Luminex peptide beads
T7 construct: also called peptide 6 C-term
T7 peptide: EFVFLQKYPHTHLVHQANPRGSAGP
Text: as §1

[8] = target: T8, hGDF8 peptide 7 (52-65), unmodified (human); experiment: Luminex peptide beads
T8 peptide: LQKYPHTHLVHQAN
Text: as §1

[9] = target: T9, hGDF8 peptide 7 (52-65), C-terminal biotinylated (human); experiment: Luminex peptide beads
T9 construct: also called peptide 7 C-term
T9 peptide: LQKYPHTHLVHQAN-biotin
Text: as §1

[10] = target: T10, hGDF8 peptide 8 (52-72), unmodified (human); experiment: Luminex peptide beads
T10 peptide: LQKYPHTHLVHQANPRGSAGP
Text: as §1

[11] = target: T11, hGDF8 peptide 11 (65-72), N-terminal biotinylated (human); experiment: Luminex peptide beads
T11 construct: also called peptide 11 N-term
T11 peptide: Biotin-NPRGSAGP
Text: as §1

[12] = target: T12, hGDF8 peptide 11 (65-72), C-terminal biotinylated (human); experiment: Luminex peptide beads
T12 construct: also called peptide 11 C-term
T12 peptide: NPRGSAGP-biotin
Text: as §1

[13] = target: T13, hGDF8 peptide 12 (73-90), N-terminal biotinylated (human, cysteine pairing not given here); experiment: Luminex peptide beads
T13 construct: also called peptide 12 N-term
T13 peptide: Biotin-CCTPTKMSPINMLYFNGK
Text: as §1

[14] = target: T14, hGDF8 peptide 13 (75-105), unmodified (human); experiment: Luminex peptide beads
T14 peptide: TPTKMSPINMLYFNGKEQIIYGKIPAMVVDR
Text: as §1

[15] = target: T15, hGDF8 peptide 14 (91-105), unmodified (human); experiment: Luminex peptide beads
T15 peptide: EQIIYGKIPAMVVDR
Text: as §1

[16] = target: T16, hGDF8 peptide 14 (91-105), N-terminal biotinylated (human); experiment: Luminex peptide beads
T16 construct: also called peptide 14 N-term
T16 peptide: Biotin-EQIIYGKIPAMVVDR
Text: as §1

[17] = target: T17, hGDF8 peptide 14 (91-105), C-terminal biotinylated (human); experiment: Luminex peptide beads
T17 construct: also called peptide 14 C-term
T17 peptide: EQIIYGKIPAMVVDR-biotin
Text: as §1

[18] = target: T18, GDF11 (from serum of treated C57BL6 mice) (mouse, UniProt Q9Z1W4 297-405, limits assumed); experiment: pull-down from serum of treated mice with anti human Fc beads, mass spectrometry
T18 sequence (looked up): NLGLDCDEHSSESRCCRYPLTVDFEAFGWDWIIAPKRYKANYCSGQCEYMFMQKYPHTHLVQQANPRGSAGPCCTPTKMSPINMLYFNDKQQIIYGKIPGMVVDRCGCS
Procedure: (§2) To examine the specificity of H4H1657N2 in vivo, C57BL6 mice were injected with drug, and serum from treated mice was subjected to a mass spectrometry based ligand “fishing” experiment. Briefly, drug (H4H1657N2, Control IV or isotype negative control) was injected multiple times (Day 0, D3, D7, D10) over a 14-day period into C57BL6 mice. Animals were sacrificed on D14 and serum was incubated with anti human Fc beads. The beads were washed and bound material was eluted with SDS-PAGE loading buffer. Eluted material was subjected to SDS-PAGE and gel slices corresponding to a molecular weight range of 5-20 kDa were excised. Samples were processed for mass spectrometry using standard reduction, alkylation and trypsinization conditions. Digests were separated on a nano C18 column and automatically spotted onto Bruker Anchor Targets. MALDI-MS (MS/MS) analysis (Bruker Ultraflextreme) was performed in an automated fashion, using LC-WARP (Bruker Daltonics). The mass spectra were searched using MASCOT (Matrix Science) and results were evaluated relative to the isotype control.

[19] = target: T19, Inhibin beta A chain (from serum of treated C57BL6 mice) (mouse, UniProt Q04998 309-424, limits assumed); experiment: as above
T19 sequence (looked up): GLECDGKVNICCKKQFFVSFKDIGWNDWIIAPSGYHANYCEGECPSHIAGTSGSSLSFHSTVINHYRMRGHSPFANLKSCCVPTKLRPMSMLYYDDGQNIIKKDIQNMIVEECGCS
Procedure: as §2

B1: H4H1657N2 (antibody, V domains shown)
VH: EVQVLESGGDLVQPGGSLRLSCAASGFTFSAYAMTWVRQAPGKGLEWVSAISGSGGSAYYADSVKGRFTISRDNSKNTVYLQMNSLRAEDTAVYYCAKDGAWKMSGLDVWGQGTTVIVSS
VL: DIQMTQSPASLSASVGDRVTITCRASQDISDYLAWYQQKPGKIPRLLIYTTSTLQSGVPSRFRGSGSGTDFTLTISSLQPEDVATYYCQKYDSAPLTFGGGTKVEIK
notes: captured by anti-hFc, so human Fc
binding result [1]: no binding (tested: 2.5 µg/ml) | binding result [2]: no binding (tested: 2.5 µg/ml) | binding result [3]: no binding (tested: 2.5 µg/ml) | binding result [4]: no binding (tested: 2.5 µg/ml) | binding result [5]: no binding (tested: 2.5 µg/ml) | binding result [6]: no binding (tested: 2.5 µg/ml) | binding result [7]: no binding (tested: 2.5 µg/ml) | binding result [8]: no binding (tested: 2.5 µg/ml) | binding result [9]: no binding (tested: 2.5 µg/ml) | binding result [10]: no binding (tested: 2.5 µg/ml) | binding result [11]: no binding (tested: 2.5 µg/ml) | binding result [12]: no binding (tested: 2.5 µg/ml) | binding result [13]: no binding (tested: 2.5 µg/ml) | binding result [14]: no binding (tested: 2.5 µg/ml) | binding result [15]: no binding (tested: 2.5 µg/ml) | binding result [16]: no binding (tested: 2.5 µg/ml) | binding result [17]: no binding (tested: 2.5 µg/ml) | binding result [18]: no binding | binding result [19]: no binding
